This assay addresses T1, FcγRIa (human, UniProt P12314 16-292).
T1 construct: extracellular domain; Soluble extracellular domain expressed in FreeStyle293 cells, used as analyte in Biacore; also called FcgRI; 1a; not shown: His tag attached to the C terminus
The assay is described as follows: SPR (Biacore); Ho Ab vs HoCon Ab GpH7-B3/GpL16-k0. The protocol: Analysis of interaction between objective antibody and the FcγR was carried out using Biacore T100 (GE Healthcare). HBS-EP+ (GE Healthcare) was used as the running buffer, and the measurement temperature was set to 25° C. Chips produced by immobilizing the antigen peptide by the amine coupling method to a Series S Sencor Chip CM5 (GE Healthcare), or alternatively, chips produced by allowing preliminarily biotinylated antigen peptides to interact with and immobilize onto a Series S Sensor Chip SA (certified) (GE Healthcare) were used. Antibodies of interest were captured onto an antigen peptide-immobilized chip, and allowed to interact to each FcγR diluted with running buffer. To regenerate and repeatedly use the chip, the antibodies captured on the chip were washed off by reacting 10 mM glycine-HCl, pH 1.5.

For 16 molecules, Ho/Con_1a results are on record in patent US20150344570A1 (published 2015).

T1 sequence (P12314 16-292): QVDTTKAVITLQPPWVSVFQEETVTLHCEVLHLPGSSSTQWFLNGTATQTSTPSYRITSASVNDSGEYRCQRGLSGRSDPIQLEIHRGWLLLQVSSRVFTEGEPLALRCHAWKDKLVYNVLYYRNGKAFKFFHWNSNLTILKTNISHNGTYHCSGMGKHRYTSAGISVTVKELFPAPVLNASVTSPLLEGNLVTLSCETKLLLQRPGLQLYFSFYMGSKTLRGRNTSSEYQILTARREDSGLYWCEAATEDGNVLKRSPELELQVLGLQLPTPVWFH

B1: GpH7-B3 variant Q295_07I/GpL16-k0 (antibody, human IgG1, kappa)
heavy: not shown
light: DIVMTQSPLSLPVTPGEPASISCQASESLVHSNRNTYLHWYLQKPGQSPQLLIYKVSNRFSGVPDRFSGSGSGTDFTLKISRVEAEDVGVYYCSQNTHVPPTFGQGTKVEIERTVAAPSVFIFPPSDEQLKSGTASVVCLLNNFYPREAKVQWKVDNALQSGNSQESVTEQDSKDSTYSLSSTLTLSKADYEKHKVYACEVTHQGLSSPVTKSFNRGEC
notes: also called Ho Ab Q295_07I
On to B1, for which the Ho/Con_1a is 101 relative binding, control = 100.

B2: GpH7-B3 variant S267_03V/GpL16-k0 (antibody, human IgG1, kappa)
heavy: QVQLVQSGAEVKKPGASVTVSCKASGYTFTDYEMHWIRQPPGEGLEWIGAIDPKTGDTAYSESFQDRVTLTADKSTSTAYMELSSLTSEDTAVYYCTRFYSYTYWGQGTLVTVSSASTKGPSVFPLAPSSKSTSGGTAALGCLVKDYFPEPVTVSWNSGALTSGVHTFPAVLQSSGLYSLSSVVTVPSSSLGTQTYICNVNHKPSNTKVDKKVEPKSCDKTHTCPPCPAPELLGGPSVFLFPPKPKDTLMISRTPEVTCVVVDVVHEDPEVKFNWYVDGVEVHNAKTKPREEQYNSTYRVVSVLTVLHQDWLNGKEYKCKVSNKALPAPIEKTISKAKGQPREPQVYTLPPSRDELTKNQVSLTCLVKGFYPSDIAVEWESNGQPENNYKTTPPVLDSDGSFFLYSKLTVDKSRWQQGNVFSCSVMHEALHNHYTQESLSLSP
light: DIVMTQSPLSLPVTPGEPASISCQASESLVHSNRNTYLHWYLQKPGQSPQLLIYKVSNRFSGVPDRFSGSGSGTDFTLKISRVEAEDVGVYYCSQNTHVPPTFGQGTKVEIERTVAAPSVFIFPPSDEQLKSGTASVVCLLNNFYPREAKVQWKVDNALQSGNSQESVTEQDSKDSTYSLSSTLTLSKADYEKHKVYACEVTHQGLSSPVTKSFNRGEC
notes: also called Ho Ab S267_03V
On to B2, for which the Ho/Con_1a was 102 relative binding, control = 100.

B3: GpH7-B3 variant S267_08L/GpL16-k0 (antibody, human IgG1, kappa)
heavy: not shown
light: DIVMTQSPLSLPVTPGEPASISCQASESLVHSNRNTYLHWYLQKPGQSPQLLIYKVSNRFSGVPDRFSGSGSGTDFTLKISRVEAEDVGVYYCSQNTHVPPTFGQGTKVEIERTVAAPSVFIFPPSDEQLKSGTASVVCLLNNFYPREAKVQWKVDNALQSGNSQESVTEQDSKDSTYSLSSTLTLSKADYEKHKVYACEVTHQGLSSPVTKSFNRGEC
notes: also called Ho Ab S267_08L
B3: the Ho/Con_1a is 99.9 relative binding, control = 100.

B4: GpH7-B3 variant S267_16H/GpL16-k0 (antibody, human IgG1, kappa)
heavy: not shown
light: DIVMTQSPLSLPVTPGEPASISCQASESLVHSNRNTYLHWYLQKPGQSPQLLIYKVSNRFSGVPDRFSGSGSGTDFTLKISRVEAEDVGVYYCSQNTHVPPTFGQGTKVEIERTVAAPSVFIFPPSDEQLKSGTASVVCLLNNFYPREAKVQWKVDNALQSGNSQESVTEQDSKDSTYSLSSTLTLSKADYEKHKVYACEVTHQGLSSPVTKSFNRGEC
notes: also called Ho Ab S267_16H
Turning to B4, the Ho/Con_1a was 98.2 relative binding, control = 100.

B5: GpH7-B3 variant Q295_14T/GpL16-k0 (antibody, human IgG1, kappa)
heavy: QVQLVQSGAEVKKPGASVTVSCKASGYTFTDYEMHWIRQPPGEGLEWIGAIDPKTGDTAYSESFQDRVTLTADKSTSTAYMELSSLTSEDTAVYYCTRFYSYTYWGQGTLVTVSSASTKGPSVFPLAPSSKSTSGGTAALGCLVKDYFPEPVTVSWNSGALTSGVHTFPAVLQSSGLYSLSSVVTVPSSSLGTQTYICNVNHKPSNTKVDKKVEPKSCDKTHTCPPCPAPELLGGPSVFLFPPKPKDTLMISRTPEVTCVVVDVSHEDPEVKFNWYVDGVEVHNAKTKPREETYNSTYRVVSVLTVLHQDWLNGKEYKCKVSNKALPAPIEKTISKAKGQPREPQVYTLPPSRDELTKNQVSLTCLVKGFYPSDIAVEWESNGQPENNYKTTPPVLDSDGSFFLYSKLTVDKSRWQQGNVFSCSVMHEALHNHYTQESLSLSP
light: DIVMTQSPLSLPVTPGEPASISCQASESLVHSNRNTYLHWYLQKPGQSPQLLIYKVSNRFSGVPDRFSGSGSGTDFTLKISRVEAEDVGVYYCSQNTHVPPTFGQGTKVEIERTVAAPSVFIFPPSDEQLKSGTASVVCLLNNFYPREAKVQWKVDNALQSGNSQESVTEQDSKDSTYSLSSTLTLSKADYEKHKVYACEVTHQGLSSPVTKSFNRGEC
notes: also called Ho Ab Q295_14T
With B5, the Ho/Con_1a was 102 relative binding, control = 100.

B6: GpH7-B3 variant S239_14T/GpL16-k0 (antibody, human IgG1, kappa)
heavy: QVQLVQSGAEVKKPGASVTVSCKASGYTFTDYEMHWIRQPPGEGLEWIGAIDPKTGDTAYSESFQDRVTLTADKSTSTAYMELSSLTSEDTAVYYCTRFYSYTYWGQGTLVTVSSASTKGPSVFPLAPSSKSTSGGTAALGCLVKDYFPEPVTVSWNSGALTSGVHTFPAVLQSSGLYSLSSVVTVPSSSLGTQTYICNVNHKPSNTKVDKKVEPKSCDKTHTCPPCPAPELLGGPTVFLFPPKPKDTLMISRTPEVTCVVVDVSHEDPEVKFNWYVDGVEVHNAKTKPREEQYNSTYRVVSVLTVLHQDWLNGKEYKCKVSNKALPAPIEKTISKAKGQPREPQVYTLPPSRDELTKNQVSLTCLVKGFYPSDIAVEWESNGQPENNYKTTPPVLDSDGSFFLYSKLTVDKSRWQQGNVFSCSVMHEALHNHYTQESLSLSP
light: DIVMTQSPLSLPVTPGEPASISCQASESLVHSNRNTYLHWYLQKPGQSPQLLIYKVSNRFSGVPDRFSGSGSGTDFTLKISRVEAEDVGVYYCSQNTHVPPTFGQGTKVEIERTVAAPSVFIFPPSDEQLKSGTASVVCLLNNFYPREAKVQWKVDNALQSGNSQESVTEQDSKDSTYSLSSTLTLSKADYEKHKVYACEVTHQGLSSPVTKSFNRGEC
notes: also called Ho Ab S239_14T
As for B6, the Ho/Con_1a was 101 relative binding, control = 100.

B7: GpH7-B3 variant Q295_13S/GpL16-k0 (antibody, human IgG1, kappa)
heavy: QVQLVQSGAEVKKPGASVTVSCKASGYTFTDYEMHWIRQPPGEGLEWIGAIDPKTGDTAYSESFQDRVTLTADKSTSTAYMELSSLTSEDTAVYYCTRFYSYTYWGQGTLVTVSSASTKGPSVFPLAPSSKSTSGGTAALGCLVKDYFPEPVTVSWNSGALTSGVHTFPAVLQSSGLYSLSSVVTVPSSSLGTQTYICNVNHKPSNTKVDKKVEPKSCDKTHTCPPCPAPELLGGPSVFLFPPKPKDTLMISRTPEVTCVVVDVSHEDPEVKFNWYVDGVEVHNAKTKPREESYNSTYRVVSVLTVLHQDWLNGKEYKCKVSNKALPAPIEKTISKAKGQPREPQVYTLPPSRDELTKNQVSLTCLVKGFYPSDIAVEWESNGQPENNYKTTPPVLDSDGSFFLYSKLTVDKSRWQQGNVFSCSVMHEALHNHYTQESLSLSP
light: DIVMTQSPLSLPVTPGEPASISCQASESLVHSNRNTYLHWYLQKPGQSPQLLIYKVSNRFSGVPDRFSGSGSGTDFTLKISRVEAEDVGVYYCSQNTHVPPTFGQGTKVEIERTVAAPSVFIFPPSDEQLKSGTASVVCLLNNFYPREAKVQWKVDNALQSGNSQESVTEQDSKDSTYSLSSTLTLSKADYEKHKVYACEVTHQGLSSPVTKSFNRGEC
notes: also called Ho Ab Q295_13S
With B7, the Ho/Con_1a was 101 relative binding, control = 100.

B8: GpH7-B3 variant S239_19Q/GpL16-k0 (antibody, human IgG1, kappa)
heavy: not shown
light: DIVMTQSPLSLPVTPGEPASISCQASESLVHSNRNTYLHWYLQKPGQSPQLLIYKVSNRFSGVPDRFSGSGSGTDFTLKISRVEAEDVGVYYCSQNTHVPPTFGQGTKVEIERTVAAPSVFIFPPSDEQLKSGTASVVCLLNNFYPREAKVQWKVDNALQSGNSQESVTEQDSKDSTYSLSSTLTLSKADYEKHKVYACEVTHQGLSSPVTKSFNRGEC
notes: also called Ho Ab S239_19Q
As for B8, the Ho/Con_1a is 93.4 relative binding, control = 100.

B9: GpH7-B3 variant S239_09D/GpL16-k0 (antibody, human IgG1, kappa)
heavy: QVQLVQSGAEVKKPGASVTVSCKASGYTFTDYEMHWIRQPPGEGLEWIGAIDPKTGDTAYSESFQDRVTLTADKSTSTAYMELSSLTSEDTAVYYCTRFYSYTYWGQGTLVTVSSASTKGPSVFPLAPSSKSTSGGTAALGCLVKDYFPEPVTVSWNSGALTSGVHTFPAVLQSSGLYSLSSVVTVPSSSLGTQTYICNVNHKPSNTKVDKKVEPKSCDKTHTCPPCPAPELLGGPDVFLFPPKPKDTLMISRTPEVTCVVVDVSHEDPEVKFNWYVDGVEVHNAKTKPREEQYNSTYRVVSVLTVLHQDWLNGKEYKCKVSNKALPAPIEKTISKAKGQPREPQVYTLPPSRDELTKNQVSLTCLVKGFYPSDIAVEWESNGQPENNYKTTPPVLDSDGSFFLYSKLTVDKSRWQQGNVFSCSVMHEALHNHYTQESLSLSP
light: DIVMTQSPLSLPVTPGEPASISCQASESLVHSNRNTYLHWYLQKPGQSPQLLIYKVSNRFSGVPDRFSGSGSGTDFTLKISRVEAEDVGVYYCSQNTHVPPTFGQGTKVEIERTVAAPSVFIFPPSDEQLKSGTASVVCLLNNFYPREAKVQWKVDNALQSGNSQESVTEQDSKDSTYSLSSTLTLSKADYEKHKVYACEVTHQGLSSPVTKSFNRGEC
notes: also called Ho Ab S239_09D; GpH7-B3-06-09D/GpL16-k0
On to B9, for which the Ho/Con_1a is 101 relative binding, control = 100.

B10: GpH7-B3 variant S267_01G/GpL16-k0 (antibody, human IgG1, kappa)
heavy: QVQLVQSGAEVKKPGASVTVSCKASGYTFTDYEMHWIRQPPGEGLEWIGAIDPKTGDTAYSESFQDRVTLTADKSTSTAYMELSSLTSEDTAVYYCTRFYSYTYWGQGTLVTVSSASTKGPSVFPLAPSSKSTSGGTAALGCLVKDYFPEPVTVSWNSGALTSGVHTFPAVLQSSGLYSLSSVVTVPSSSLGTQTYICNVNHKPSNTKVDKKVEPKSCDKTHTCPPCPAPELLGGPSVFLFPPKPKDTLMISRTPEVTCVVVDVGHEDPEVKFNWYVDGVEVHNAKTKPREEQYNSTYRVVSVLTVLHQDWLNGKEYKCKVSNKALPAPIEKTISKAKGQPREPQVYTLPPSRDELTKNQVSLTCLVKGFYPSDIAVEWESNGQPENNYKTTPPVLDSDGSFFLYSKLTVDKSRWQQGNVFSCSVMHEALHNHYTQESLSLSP
light: DIVMTQSPLSLPVTPGEPASISCQASESLVHSNRNTYLHWYLQKPGQSPQLLIYKVSNRFSGVPDRFSGSGSGTDFTLKISRVEAEDVGVYYCSQNTHVPPTFGQGTKVEIERTVAAPSVFIFPPSDEQLKSGTASVVCLLNNFYPREAKVQWKVDNALQSGNSQESVTEQDSKDSTYSLSSTLTLSKADYEKHKVYACEVTHQGLSSPVTKSFNRGEC
notes: also called Ho Ab S267_01G
On to B10, for which the Ho/Con_1a is 102 relative binding, control = 100.

B11: GpH7-B3 variant S267_02A/GpL16-k0 (antibody, human IgG1, kappa)
heavy: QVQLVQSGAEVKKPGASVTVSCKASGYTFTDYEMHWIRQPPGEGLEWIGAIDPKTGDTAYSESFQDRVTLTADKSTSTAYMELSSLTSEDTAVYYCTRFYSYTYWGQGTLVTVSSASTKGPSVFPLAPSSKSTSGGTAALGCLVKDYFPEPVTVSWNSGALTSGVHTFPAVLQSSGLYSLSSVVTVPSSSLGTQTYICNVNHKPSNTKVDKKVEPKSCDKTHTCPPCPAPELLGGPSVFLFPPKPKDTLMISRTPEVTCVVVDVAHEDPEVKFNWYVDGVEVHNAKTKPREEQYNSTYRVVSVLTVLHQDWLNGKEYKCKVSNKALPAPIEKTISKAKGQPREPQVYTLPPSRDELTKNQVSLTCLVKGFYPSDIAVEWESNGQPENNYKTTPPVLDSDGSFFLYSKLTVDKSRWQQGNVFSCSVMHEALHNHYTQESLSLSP
light: DIVMTQSPLSLPVTPGEPASISCQASESLVHSNRNTYLHWYLQKPGQSPQLLIYKVSNRFSGVPDRFSGSGSGTDFTLKISRVEAEDVGVYYCSQNTHVPPTFGQGTKVEIERTVAAPSVFIFPPSDEQLKSGTASVVCLLNNFYPREAKVQWKVDNALQSGNSQESVTEQDSKDSTYSLSSTLTLSKADYEKHKVYACEVTHQGLSSPVTKSFNRGEC
notes: also called Ho Ab S267_02A
Regarding B11, the Ho/Con_1a was 108 relative binding, control = 100.

B12: GpH7-B3 variant Q295_08L/GpL16-k0 (antibody, human IgG1, kappa)
heavy: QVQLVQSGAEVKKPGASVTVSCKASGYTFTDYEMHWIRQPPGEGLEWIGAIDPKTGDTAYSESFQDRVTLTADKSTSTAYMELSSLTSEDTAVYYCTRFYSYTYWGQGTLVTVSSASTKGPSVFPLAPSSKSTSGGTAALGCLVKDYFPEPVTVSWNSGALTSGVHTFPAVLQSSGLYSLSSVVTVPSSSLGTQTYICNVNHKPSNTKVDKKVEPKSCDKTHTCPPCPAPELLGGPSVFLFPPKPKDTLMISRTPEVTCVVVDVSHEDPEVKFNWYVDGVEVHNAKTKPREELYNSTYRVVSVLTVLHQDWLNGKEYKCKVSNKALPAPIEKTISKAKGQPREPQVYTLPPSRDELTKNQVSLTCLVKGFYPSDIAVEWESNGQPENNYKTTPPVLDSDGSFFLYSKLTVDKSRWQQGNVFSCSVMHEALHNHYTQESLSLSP
light: DIVMTQSPLSLPVTPGEPASISCQASESLVHSNRNTYLHWYLQKPGQSPQLLIYKVSNRFSGVPDRFSGSGSGTDFTLKISRVEAEDVGVYYCSQNTHVPPTFGQGTKVEIERTVAAPSVFIFPPSDEQLKSGTASVVCLLNNFYPREAKVQWKVDNALQSGNSQESVTEQDSKDSTYSLSSTLTLSKADYEKHKVYACEVTHQGLSSPVTKSFNRGEC
notes: also called Ho Ab Q295_08L
For B12, the Ho/Con_1a was 103 relative binding, control = 100.

B13: GpH7-B3 variant S267_09D/GpL16-k0 (antibody, human IgG1, kappa)
heavy: not shown
light: DIVMTQSPLSLPVTPGEPASISCQASESLVHSNRNTYLHWYLQKPGQSPQLLIYKVSNRFSGVPDRFSGSGSGTDFTLKISRVEAEDVGVYYCSQNTHVPPTFGQGTKVEIERTVAAPSVFIFPPSDEQLKSGTASVVCLLNNFYPREAKVQWKVDNALQSGNSQESVTEQDSKDSTYSLSSTLTLSKADYEKHKVYACEVTHQGLSSPVTKSFNRGEC
notes: also called Ho Ab S267_09D
Consider B13, for which the Ho/Con_1a was 106 relative binding, control = 100.

B14: GpH7-B3 variant Q295_18N/GpL16-k0 (antibody, human IgG1, kappa)
heavy: not shown
light: DIVMTQSPLSLPVTPGEPASISCQASESLVHSNRNTYLHWYLQKPGQSPQLLIYKVSNRFSGVPDRFSGSGSGTDFTLKISRVEAEDVGVYYCSQNTHVPPTFGQGTKVEIERTVAAPSVFIFPPSDEQLKSGTASVVCLLNNFYPREAKVQWKVDNALQSGNSQESVTEQDSKDSTYSLSSTLTLSKADYEKHKVYACEVTHQGLSSPVTKSFNRGEC
notes: also called Ho Ab Q295_18N
Consider B14, for which the Ho/Con_1a is 101 relative binding, control = 100.

B15: GpH7-B3 variant S239_01G/GpL16-k0 (antibody, human IgG1, kappa)
heavy: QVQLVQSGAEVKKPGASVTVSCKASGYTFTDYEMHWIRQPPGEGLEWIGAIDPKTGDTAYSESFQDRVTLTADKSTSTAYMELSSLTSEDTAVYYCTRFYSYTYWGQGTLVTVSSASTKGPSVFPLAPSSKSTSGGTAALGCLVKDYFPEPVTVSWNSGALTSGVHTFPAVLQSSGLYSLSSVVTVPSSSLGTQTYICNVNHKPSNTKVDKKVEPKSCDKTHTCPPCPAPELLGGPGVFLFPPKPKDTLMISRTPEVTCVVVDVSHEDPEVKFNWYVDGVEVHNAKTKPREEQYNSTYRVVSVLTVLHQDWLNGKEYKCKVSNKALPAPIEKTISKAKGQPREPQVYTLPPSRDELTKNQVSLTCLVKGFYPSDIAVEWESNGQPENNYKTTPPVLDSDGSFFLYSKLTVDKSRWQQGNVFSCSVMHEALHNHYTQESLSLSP
light: DIVMTQSPLSLPVTPGEPASISCQASESLVHSNRNTYLHWYLQKPGQSPQLLIYKVSNRFSGVPDRFSGSGSGTDFTLKISRVEAEDVGVYYCSQNTHVPPTFGQGTKVEIERTVAAPSVFIFPPSDEQLKSGTASVVCLLNNFYPREAKVQWKVDNALQSGNSQESVTEQDSKDSTYSLSSTLTLSKADYEKHKVYACEVTHQGLSSPVTKSFNRGEC
notes: also called Ho Ab S239_01G
As for B15, the Ho/Con_1a is 101 relative binding, control = 100.

B16: GpH7-B3 variant S239_18N/GpL16-k0 (antibody, human IgG1, kappa)
heavy: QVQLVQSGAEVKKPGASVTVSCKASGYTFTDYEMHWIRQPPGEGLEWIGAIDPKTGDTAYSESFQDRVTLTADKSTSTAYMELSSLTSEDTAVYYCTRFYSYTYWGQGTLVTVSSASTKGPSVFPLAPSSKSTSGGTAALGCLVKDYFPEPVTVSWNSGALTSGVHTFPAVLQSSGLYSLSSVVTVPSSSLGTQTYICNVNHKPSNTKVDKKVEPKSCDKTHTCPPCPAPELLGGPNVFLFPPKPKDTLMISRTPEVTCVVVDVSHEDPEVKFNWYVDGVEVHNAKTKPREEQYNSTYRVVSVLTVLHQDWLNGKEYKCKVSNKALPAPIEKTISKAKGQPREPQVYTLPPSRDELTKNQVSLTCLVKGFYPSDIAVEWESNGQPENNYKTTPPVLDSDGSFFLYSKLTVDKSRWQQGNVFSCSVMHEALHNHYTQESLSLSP
light: DIVMTQSPLSLPVTPGEPASISCQASESLVHSNRNTYLHWYLQKPGQSPQLLIYKVSNRFSGVPDRFSGSGSGTDFTLKISRVEAEDVGVYYCSQNTHVPPTFGQGTKVEIERTVAAPSVFIFPPSDEQLKSGTASVVCLLNNFYPREAKVQWKVDNALQSGNSQESVTEQDSKDSTYSLSSTLTLSKADYEKHKVYACEVTHQGLSSPVTKSFNRGEC
notes: also called Ho Ab S239_18N
With B16, the Ho/Con_1a is 97.9 relative binding, control = 100.
